Experiments:
[1] = target: T1, Human FcRn (soluble human neonatal Fc receptor) (human, UniProt P55899 24-290; P61769 21-119, limits assumed); test: SPR (BIAcore 3000), Fc amine-coupled to CM5 chip, soluble human FcRn 1.46 nM to 3 uM, steady-state binding isotherm, PBS pH 6.0 with 0.05% Tween 20, 25 C; error is SD of 2 experiments
T1 construct: also called soluble human FcRn
Description: (§1) The interaction of soluble human FcRn with immobilized unmutated human Fc and Fc/YTE was monitored by surface plasmon resonance detection using a BIAcore 3000 instrument (GE Healthcare, Piscataway, N.J.). Unmutated human Fc and Fc/YTE were first coupled to the dextran matrix of a CM5 sensor chip (GE Healthcare) using an Amine Coupling Kit at a surface density of between 4139 and 4291 RU according to the manufacturer's instructions. Human FcRn was used in equilibrium binding experiments at concentrations ranging from 1.46 nM to 3 uM at a flow rate of 5 uL/min. Dilutions and binding experiments were carried out at 25° C. in phosphate buffered saline (PBS), pH 6.0 containing 0.05% Tween 20. Steady-state binding data were collected for 50 min. Both Fc surfaces were regenerated with six 1-min injection of PBS, pH 7.4 containing 0.05% Tween 20. Human FcRn was also allowed to flow over an uncoated cell. The sensorgrams from these blank runs were then subtracted from those obtained with Fc-coupled chips. Dissociation constants (Kds) were determined by fitting the corresponding binding isotherms.
^a Affinity measurements were carried out by BIAcore as described in Materials and Methods. Errors were estimated as the standard deviations of 2 independent experiments for each interacting pair.

[2] = target: T1, Human FcRn (soluble human neonatal Fc …); test: SPR (BIAcore 3000), ratio of steady-state Kd values, pH 6.0
Description: as §1

T1 sequence (P55899 24-290 limits assumed, chain 1 of 2): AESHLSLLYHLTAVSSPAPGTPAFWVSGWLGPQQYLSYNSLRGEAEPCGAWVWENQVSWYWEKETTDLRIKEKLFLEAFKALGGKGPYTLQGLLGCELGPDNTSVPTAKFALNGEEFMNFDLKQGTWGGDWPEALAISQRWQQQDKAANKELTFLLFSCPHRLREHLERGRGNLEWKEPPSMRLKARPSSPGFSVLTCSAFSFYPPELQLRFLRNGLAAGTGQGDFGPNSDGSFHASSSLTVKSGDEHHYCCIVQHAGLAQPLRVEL
T1 sequence (P61769 21-119 limits assumed, chain 2 of 2): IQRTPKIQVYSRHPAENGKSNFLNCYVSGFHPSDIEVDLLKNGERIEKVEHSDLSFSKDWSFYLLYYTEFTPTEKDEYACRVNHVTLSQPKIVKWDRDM

B1: Fc/YTE (human IgG1 Fc fragment containing the M252Y/S254T/T256E triple substitution) (other)
chain: GGPSVFLFPPKPKDTLYITREPEVTCVVVDVSHEDPEVKFNWYVDGVEVHNAKTKPREEQYNSTYRVVSVLTVLHQDWLNGKEYKCKVSNKALPAPIEKTISKAKGQPREPQVYTLPPSREEMTKNQVSLTCLVKGFYPSDIAVEWESNGQPENNYKTTPPVLDSDGSFFLYSKLTVDKSRWQQGNVFSCSVMHEALHNHYTQKSLSLS
modifications: one branched N-linked carbohydrate chain attached to N297 (EU numbering)
notes: Fc portion (heavy chain residues 223-447, EU) of MEDI-524 with M252Y/S254T/T256E, expressed in HEK 293 cells; It consists of two chemically identical polypeptides with at least one interchain disulfide at C226 and/or C229; In the assay it was amine-coupled to a CM5 chip; also called human IgG Fc variant; YTE-modified human Fc
In the case of B1, the Kd [1] is reported as 72 nM and the “fold higher binding affinity than the unmutated human Fc” value [2] is reported as about 8 fold.
